Data: article PMC10842378 (Cell reports, 2023)

What was measured:
[1] = target: FLAG-AP-DHX15 R222G (human, UniProt O43143 1-795, R222G); assay: proximity labelling
[2] = target: FLAG-AP-DHX15 LML triple mutant L536A/M537A/L540A (human, UniProt O43143 1-795, L536A | M537A | L540A); assay: proximity labelling
Chain of FLAG-AP-DHX15 LML triple mutant L536A/M537A/L540A (O43143 whole entry L536A/M537A/L540A): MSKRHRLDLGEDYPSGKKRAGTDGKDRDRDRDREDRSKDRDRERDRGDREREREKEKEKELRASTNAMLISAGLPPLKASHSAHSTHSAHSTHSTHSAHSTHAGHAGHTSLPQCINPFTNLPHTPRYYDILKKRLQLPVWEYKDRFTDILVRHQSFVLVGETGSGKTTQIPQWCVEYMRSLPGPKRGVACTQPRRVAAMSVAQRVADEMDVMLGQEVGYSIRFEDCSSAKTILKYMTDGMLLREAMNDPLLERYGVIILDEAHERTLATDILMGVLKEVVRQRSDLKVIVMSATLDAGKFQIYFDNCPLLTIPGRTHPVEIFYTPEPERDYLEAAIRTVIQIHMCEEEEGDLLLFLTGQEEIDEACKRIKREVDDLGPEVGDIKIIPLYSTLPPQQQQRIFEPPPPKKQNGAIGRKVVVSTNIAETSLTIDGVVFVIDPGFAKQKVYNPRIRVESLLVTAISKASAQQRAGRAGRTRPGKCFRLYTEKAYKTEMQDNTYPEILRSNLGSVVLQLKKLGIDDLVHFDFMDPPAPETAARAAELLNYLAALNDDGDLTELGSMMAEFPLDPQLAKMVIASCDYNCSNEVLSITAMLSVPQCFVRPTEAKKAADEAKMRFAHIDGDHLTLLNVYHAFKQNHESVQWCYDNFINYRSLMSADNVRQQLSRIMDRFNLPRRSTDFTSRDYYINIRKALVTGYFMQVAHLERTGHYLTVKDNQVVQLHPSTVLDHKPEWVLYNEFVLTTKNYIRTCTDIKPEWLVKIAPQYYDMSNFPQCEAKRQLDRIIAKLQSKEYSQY

Chain of FLAG-AP-DHX15 R222G (O43143 whole entry R222G): as the sequence (O43143 whole entry L536A/M537A/L540A) above, with R222G, A536L, A537M, A540L counted along it

| level in the streptavidin pull-down (percent) [1] [%] | level in the streptavidin pull-down (percent) [2] [%] | Binder |
| --- | --- | --- |
| 80 | 47 | U2AF2 (natural protein, human (endogenous in HEK293T.A2), UniProt P26368 1-475, looked up) MSDFDEFERQLNENKQERDKENRHRKRSHSRSRSRDRKRRSRSRDRRNRDQRSASRDRRRRSKPLTRGAKEEHGGLIRSPRHEKKKKVRKYWDVPPPGFEHITPMQYKAMQAAGQIPATALLPTMTPDGLAVTPTPVPVVGSQMTRQARRLYVGNIPFGITEEAMMDFFNAQMRLGGLTQAPGNPVLAVQINQDKNFAFLEFRSVDETTQAMAFDGIIFQGQSLKIRRPHDYQPLPGMSENPSVYVPGVVSTVVPDSAHKLFIGGLPNYLNDDQVKELLTSFGPLKAFNLVKDSATGLSKGYAFCEYVDINVTDQAIAGLNGMQLGDKKLLVQRASVGAKNATLVSPPSTINQTPVTLQVPGLMSSQVQMGGHPTEVLCLMNMVLPEELLDDEEYEEIVEDVRDECSKYGLVKSIEIPRPVDGVEVPGCGKIFVEFTSVFDCQKAMQGLTGRKFANRVVVTKYCDPDSYHRRDFW |
| 76 | 36 | SF3B1 (natural protein, human (endogenous in HEK293T.A2), UniProt O75533 1-1304, looked up) MAKIAKTHEDIEAQIREIQGKKAALDEAQGVGLDSTGYYDQEIYGGSDSRFAGYVTSIAATELEDDDDDYSSSTSLLGQKKPGYHAPVALLNDIPQSTEQYDPFAEHRPPKIADREDEYKKHRRTMIISPERLDPFADGGKTPDPKMNARTYMDVMREQHLTKEEREIRQQLAEKAKAGELKVVNGAAASQPPSKRKRRWDQTADQTPGATPKKLSSWDQAETPGHTPSLRWDETPGRAKGSETPGATPGSKIWDPTPSHTPAGAATPGRGDTPGHATPGHGGATSSARKNRWDETPKTERDTPGHGSGWAETPRTDRGGDSIGETPTPGASKRKSRWDETPASQMGGSTPVLTPGKTPIGTPAMNMATPTPGHIMSMTPEQLQAWRWEREIDERNRPLSDEELDAMFPEGYKVLPPPAGYVPIRTPARKLTATPTPLGGMTGFHMQTEDRTMKSVNDQPSGNLPFLKPDDIQYFDKLLVDVDESTLSPEEQKERKIMKLLLKIKNGTPPMRKAALRQITDKAREFGAGPLFNQILPLLMSPTLEDQERHLLVKVIDRILYKLDDLVRPYVHKILVVIEPLLIDEDYYARVEGREIISNLAKAAGLATMISTMRPDIDNMDEYVRNTTARAFAVVASALGIPSLLPFLKAVCKSKKSWQARHTGIKIVQQIAILMGCAILPHLRSLVEIIEHGLVDEQQKVRTISALAIAALAEAATPYGIESFDSVLKPLWKGIRQHRGKGLAAFLKAIGYLIPLMDAEYANYYTREVMLILIREFQSPDEEMKKIVLKVVKQCCGTDGVEANYIKTEILPPFFKHFWQHRMALDRRNYRQLVDTTVELANKVGAAEIISRIVDDLKDEAEQYRKMVMETIEKIMGNLGAADIDHKLEEQLIDGILYAFQEQTTEDSVMLNGFGTVVNALGKRVKPYLPQICGTVLWRLNNKSAKVRQQAADLISRTAVVMKTCQEEKLMGHLGVVLYEYLGEEYPEVLGSILGALKAIVNVIGMHKMTPPIKDLLPRLTPILKNRHEKVQENCIDLVGRIADRGAEYVSAREWMRICFELLELLKAHKKAIRRATVNTFGYIAKAIGPHDVLATLLNNLKVQERQNRVCTTVAIAIVAETCSPFTVLPALMNEYRVPELNVQNGVLKSLSFLFEYIGEMGKDYIYAVTPLLEDALMDRDLVHRQTASAVVQHMSLGVYGFGCEDSLNHLLNYVWPNVFETSPHVIQAVMGALEGLRVAIGPCRMLQYCLQGLFHPARKVRDVYWKIYNSIYIGSQDALIAHYPRIYNDDKNTYIRYELDYIL |
